Experimental data published in a protein production outcome set (Wang et al. 2014).

assay: label from the status in PepcDB records

Sequence | protein production
MRVKTIMTQNPVTITLPATRNYALELFKKYKVRSFPVVNKEGKLVGIISVKRILVNPDEEQLAMLVKRDVPVVKENDTLKKAAKLMLEYDYRRVVVVDSKGKPVGILTVGDIIRRYFAKSEKYKGVEIEPYYQRYVSIVWEGTPLKAALKALLLSNSMALPVVDSEGNLVGIVDETDLLRDSEIVRIMKSTELAASSEEEWILESHPTLLFEKFELQLPNKPVAEIMTRDVIVATPHMTVHEVALKMAKYSIEQLPVIRGEGDLIGLIRDFDLLKVLVKSKA | not failed
MRVLETIVALREYRKSLEESVGFVPTMGALHKGHQSLIERSLKENSHTIVSVFVNPTQFGANEDFNAYPRPLEKDLALCEKLGVNAVFVPKIGEMYPYEAEQRLKLYAPKFLSSSLEGAMRKGHFDGVVQIVLKMFHLVNPTRAYFGKKDAQQLLIIEHLVKDLLLDIEIAPCEIVRDDDNLALSSRNVYLNATQRKQALAIPKALEKIQQAIDKGEKACEKLKKLGLEILETLEVDYLECCNHKLEPLTIIEPTNTLILVAARVGKTRLLDNLWV | failed
MRVLPLLLLIYPFAEIAALVALADRIGGLAVFLLVLLSSMLGLWMLRNQKLGALLTLGSVMRQGDKVSLYSLLWPLRYALAGLLFLLPGLLSDVAAVLLLLPLKGPDISLRATGAGPAAGPAGGSDIIEGEFSRVDETTPPGRRIQ | failed
MRVNILMSTYNGEKFVADQIESIQKQTYTDWNLIIRDDGSSDRTCEIVDDFVSKDNRIKLIRAENVGVIKSFHELVTDSNNADFYFFADQDDYWLPEKLSVMLEETKKHDNSKPVMYYTDLKVTDRNLNVTSESMIRGQSDHANTKLVQELTENTVTGGASMINHELAQLWQSTNDIIMHDWYLAIVAAALGELVYIDQPTHLYRQHDSNVLGARTLSKRIKKWIHPNLWFEKYWWLITASQKQAQKLLTENLSLMSEDDKALVSDYVNILKQPKAERRQILDRYNLRKNKNYHTSIFRTLIITKFAYKGKKTNEFLQP | failed
MRVSCVYATASRWGGPPVASEVRGDAAISTTPDAAPGLAARRRRILFVAEAVTLAHVVRPFALAQSLDPSRYEVHFACDPRYNQLLGPLPFRHHAIHTIPSERFFGNLTQGRFYAMRTLRKYVEADLRVLDEIAPDLVVGDLRISLSVSARLAGIPYIAIANAYWSPYAQRRFPLPDVIWTRLFGVRLVKLLYRLERPLLFALQCMPLNWVRRRHGLSSLGWNLCRIFTDGDHTLYADVPELMPTYDLPANHEYLGPVLWSPAGKPPTWWDSLPTDRPIVYATLGTSGGRNLLQLVLNALAELPVTVIAATAGRSDLKTVPANAFVADYLPGEAAAARSAVVVCNGGSLTTQQALVAGVPVIGVAGNLDQHLNMEAVERAGAGVLLRTERLKSQRVAGAVMQVISRSEYRQAAARLADAFGRDRVGFPQHVENALRLMPENRPRTWLAS | failed
MRVSMTLFRSKENHRMLNNFAKLNGGDDVRMGADVPADALVDRLLVGFFYGPSDRLPEVLHVSNQLVRTKESYPFLPFCASQSHIWKPGDPLRHLEPFTLNPWCIIPYVNPRSQDFPFPELNEIKSQQLYFDHLLGIKKLPTMTLDVPKSHHFQPKLSRLKTHHNFPYLADFVIKVPTTIFSFIVAISLLL | failed
MRVVLQMAPPIASGRGGQGLITCPGHKERRVASLNRIAMARSSRRMIKDLGPEGLEVAEISGKWGQQFPFRSYRRFIYPEYDICAGPYCDAAGEIEQFDLILANQVWEHLDRPYEATLNVLEMLRTGGHFWLAVPFFVPFHAAPMDNSRWSARGLRNFLIECGFAEEEIRAEQWGNRHAALRNLERPWPPVYDPETDPLDNDPDFPICAWAIARKT | failed
MRWFILCLRKYVDFKGRARRKEFWLFTLFYLIALVIPPAVIIPIAVIYRHTIDIALCIRICVVVEILVIFSLLLPAYAVTVRRLHDTNRSGLWVIASIVPRVLAEGLGVIFGQKWLIQIAEGEFPTLLLINMFLLLIDLCVSILILVMMCERGTEGENRFGPDPLSDGREVLMEPEPGK | failed
MRWILFILFCLLGAPAHAVSIPGVTTTTTTDSTTEPAPEPDIEQKKAAYGALADVLDNDTSRKELIDQLRTVAATPPAEPVPKIVPPTLVEEQTVLQKVTEVSRHYGEALSARFGQLYRNITGSPHKPFNPQTFSNALTHFSMLAVLVFGFYWLIRLCALPLYRKMGQWARQKNRERSNWLQLPAMIIGAFIIDLLLLALTLFVGQVLSDNLNAGSRTIAFQQSLFLNAFALIEFFKAVLRLIFCPNVAELRPFTIQDESARYWSRRLSWLSSLIGYGLIVAVPIISNQVNVQIGALANVIIMLCMTVWALYLIFRNKKEITQHLLNFAEHSLAFFSLFIRAFALVWHWLASAYFIVLFFFSLFDPGNSLKFMMGATVRSLAIIGIAAFVSGMFSRWLAKTITLSPHTQRNYPELQKRLNGWLSAALKTARILTVCVAVMLLLSAWGLFDFWNWLQNGAGQKTVDILIRIALILFFSAVGWTVLASLIENRLASDIHGRPLPSARTRTLLTLFRNALAVIISTITIMIVLSEIGVNIAPLLAGAGALGLAISFGSQTLVKDIITGVFIQFENGMNTGDLVTIGPLTGTVERMSIRSVGVRQDTGAYHIIPWSSITTFANFVRGIGSVVANYDVDRHEDADKANQALKDAVAELMENEEIRGLIIGEPNFAGIVGLSNTAFTLRVSFTTLPLKQWTVRFALDSQVKKHFDLAGVRAPVQTYQVLPAPGATPAEPLPPGEPTL | failed
MRWITRPGWPGNLLALAAGGLTTLALAPFDFWPLVLVSVAMFYLGLRELSPRQALARGWCYGFGLYGAGTSWIYVSIHTYGGASALLAGLLMLLFIAAIALFFALPAWVWARWLRRNEAPLADSLAFAALWLWQEAFRGWFLTGFPWLYSGYSQLDAPLAGLAPVGGVWLISFALGLTAALLCNLHRLRARKSFLAMGVLLLLAPWVAGLALKDHAWTSPSGPPLKVAAMQGNIEQSMKWDPQKLNDQLALYRDMTFRSQQADLIVWPETAVPVLKESAEGYLSMMGKFAADRGAALITGVPVREPTGRGEYSYYNGITVTGQGDGTYFKQKLVPFGEYVPLQDLLRGLISFFDLPMSDFARGPNDQALLQAKGYHIAPFICYEVVYPEFAAGLSAQSDLLLTVSNDTWFGTSIGPLQHLQMAQMRALEAGRWMIRATNNGVTALIDPFGRITVQIPQFERGVLYGEVVPMHELTPYLHWRSWPLAIVCLLLFGWALLAARISKTV | failed
MRWKLRTAGGLTALALLGGALAGPAARAAEQGSDRLGDLVNPFIGTQNEGNTYPGAAVPFGMVQLSPDTGHNTGYDYTQNHIRGFSLVHLSGVGCRIGGDLPVLPTTGDVTETDYAKYAAGFSHDSERASPGYYRVGLDSGIVAELTATGRTGVQRYTFPATDKANVLLNAGQALHKTVSTDVEVLDDRTVRTRISGSGFCRDTGPYTVYTITRFDRPFTAYGTWHGGTVTEGSAESAAGTGRNGAYARFDATEDRTVEATTALSYVDARGAEVNLRSAEGRSFADVREAARRSWEDRLDDVRVRGGSDTLRRTFYSSLYRSFLAPNIGSDADGRYTGWDHRIHRARGFTYYQNWSLWDTYRTQCQLLALLAPRESRDMAISVLKIDEDGGWLPKWGYGTVETNIMSGDPVTPFLTNAYQQGLLKGYEEQAYRALAKNADGLPPAAYPGVGRDGNREYIADGFVPYIKGGPHAKPGDSDYAHGASATMEYALSDAMLSRMARDLGHDADAERYTARSRNYRTLFDASTGFFRARDTSGAFAGPADPADSEGFHEGTAWQYQWLVPQDLPGLVDLIGGKQAANDRLDAFFAYEQLLQDPARTAREVWVDGPYEYYNSDKYNPQNEPDLIAPYTYLSTGQPWKTTDVVHAALTLFTDTPTGMTGNDDLGTMSAWHVLSSIGLFPVQPGYDTWGLSTPVFERVDLRLDRGYYPRGTLTVTAPGTSDRDRYIQSVRVDGASHDRTYLTTRVLRGLEALHFAVGARPSAWGTAPHAAPPALK | failed
MRYLADHDDLTGLHNRRALLQHLDQRLAPGQPGPVAALFLDLDRLKAINDYLGHAAGDQFIHVFAQRIGDALVGESLIARLGGDEFVLIPASPMSADAAQPLAERLRDQLKDHVAIGGEVLTRTVSIGVASGTPGQHTLEHHHHHH | not failed
MRYLLIILAFWLPLQSHAVEFDENTRFLPLGRAVQVFEDPTGTATIDSVSSPAGAQAFRPAPAGTFNAGYSRSAFWLKVELSYRPADADIHNDWLLELAYPPMDRVDFYAPDANGRPTLTWQTGDMLPFASRQFAQNNYLFQLELPPGQTRTLYVRISSEGSVQAPLNLWSTHAYLEAQPTKIYVFGLIYGVLLGMLVYNLFIYLSVREPDYLYYLLYVAAFGLYQMSINGVAIEYLWPDSPWWANASTPFLMALATLFACQFTRSFLGTVRLGRWLDRSLLTLIGAAVLVMCIALFLSYGPALRAATQLVMAGALTIYLAGIVAVVKGERVGRYFVLAWSVFMIGGLVFGLMLMGYMPNTFLTMYASHIGTLLEMAFLSMALADRINHARYQQEQTLLAYGKDLERLNQQLATSNRLKDEFLATLTHELRTPMNGVIGSLEVMQTLDMDDEVEMYQQTAASSARDMMSMINGILTLTELQAGVLYAECSAFAPVDLVDRLRERFSGAAQSKGLTLTLDLDDKLPPGIRGDAGKLYQCLECLVDNAIKFTRKGAVQVRFSGQPQDLERMYLRVEVMDSGIGFSHLDEALLYQHFLQVDGSMTREYGGLGIGLAICRKLVELQGGELSHRSEPGKGSCFTLSIPMLMAVPGAVRRAPEAKAQWGHVSRS | failed
MRYRNSRQVTGVVKNVTVSQSCGKWYISIQAESEVSTPVHPSASMVGLDAGVAKLASLSDGTVFEPVNSFQKNQKTLARLQRQLSRKVKFSNNWQKQKRKIQRLHSCIANIRRDYLHKVTTTVSKNHVMIVIEDLKVSNMSKSAAGTVSQPGRNVRAKSGLNRSILDQGWYEMRRQLEYKQLWRGGQVLAVPPAYTSQRCACCGHTAKENRLSQSKFRCQVCGYTANADVNGARNILAAGHAVLACGEMVQSGRSLKQEPTEMIQATALEHHHHHH | failed
MSAAQAVDDVPLEHAGNDVSDRMSLQRGVQLYMNYCVGCHSLKYLRYSRIAADLGLSEVQVMSTLNVTGAKFGDTIMTGMPVDTSEQWFGKIPPDLSLVARVRGSDWIYTYLRSFYVDSTRPLGWNNRLFVDVSMPNPLSHLQGVQRAEYGGASQAGADRLVTGLVLVQPGQQSPAEFDQTLRDIVNFLQYAAEP | failed
MSADHDEGLRRAQRLHLSGDADGAERAYRALLDDAALGAPAAHWLGFLLMQQGRLDEALAWLERVVAADDGHAEWHFNLGLVRARLGRSEEAVFALREAARRDPSRYFYWTNLGAQLMRGGQDAEAEQALRRAASLDPHCPDAFYLLTEMLLRQGRHAEARRCNAQGVLAEPPGKMAPIAVGQALCELGRSEEARSLAQSWLLAQPGHPVARHMLAAFGGGDAPADGDDEYVGCAFDAAAASFDQDLSRLRYQGPSWTAACLAGLSLAPKSLSALDLGCGTGLIGEVLQPWASRLDGVDLSAGMLARAGAKGIYDSLEQAELRAFLRQTDRTYQLIACMDTLPYLGELDALFMLLAERMAPGGLLLFCTESLEDGEAGDGRLHHSGRYRHHSRYLDRLLAVGWDVLERARMPVRDEAGCPVWGDFVCARKVFAA | failed
MSAEFIDSLAVMLLALGMTTAIGGMYFLFSALGNEKRIEGLLMPAVGVGLFDFMSGFVMSFTWPLPSSYNMLFGDPLLMAGLLLMISAIAYYKHYDISSVSILLFFLGIYVIIEAVGIVNYHLESGDNLLAAMGLYIVDGIAAILSPIMYIDQKKGKIAYMIEAAILIIGTLIALFIGYTAIYGHLLDFIKYFP | failed
MSAEVETSEGVDESEKKNSGALEKENQMRMADLSELLKEGTKEAHDRAENTQFVKDFLKGNIKKELFKLATTALYFTYSALEEEMERNKDHPAFAPLYFPMELHRKEALTKDMEYFFGENWEEQVQCPKAAQKYVERIHYIGQNEPELLVAHAYTRYMGDLSGGQVLKKVAQRALKLPSTGEGTQFYLFENVDNAQQFKQLYRARMNALDLNMKTKERIVEEANKAFEYNMQIFNELDQAGSTLARETLEDGFPVHDGKGDMRKCPFYAAEQDKGALEGSSCPFRTAM | not failed
MSAFDFNFQPSINQQDVLDFTDLRFIGKYENIVFLDSNVVSKNRISTYFIKCHHLKENLRKAKLENSLENRLKHYSKYKLLIIDEIGYLPIGSEAAKIFFQINRFKVLEHHHHHH | not failed
